Consider 3 molecules from patent publication US20060172377, “Site-specific serine recombinases and methods of their use” (published 2006).

Holding throughout (details): chain copies: 4
Data set [1] has as its target T1, A118 recombinase (Listeria monocytogenes phage A118).
T1 chain: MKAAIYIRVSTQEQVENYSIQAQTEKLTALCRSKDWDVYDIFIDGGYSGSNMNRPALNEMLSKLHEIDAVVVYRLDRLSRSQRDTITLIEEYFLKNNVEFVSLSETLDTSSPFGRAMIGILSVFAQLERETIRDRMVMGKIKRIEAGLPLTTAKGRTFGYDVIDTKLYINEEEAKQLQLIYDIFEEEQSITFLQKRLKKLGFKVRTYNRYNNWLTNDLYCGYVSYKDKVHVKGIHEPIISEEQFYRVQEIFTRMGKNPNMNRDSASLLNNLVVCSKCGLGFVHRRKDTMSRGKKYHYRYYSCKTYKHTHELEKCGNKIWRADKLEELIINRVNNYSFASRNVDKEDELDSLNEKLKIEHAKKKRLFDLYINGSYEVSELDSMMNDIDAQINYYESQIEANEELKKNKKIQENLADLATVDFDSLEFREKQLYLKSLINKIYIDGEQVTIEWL
Put plainly: cell_activity; partner of N7, tobacco BY2 protoplasts; chromosomal integration also seen (Tables 1-2). The method, then:
(§1) Cell suspension cultures of Nicotiana tobacum BY2 were maintained in MS medium in the dark and subcultured weekly (Nagata, T., T. Nemoto, and S. Hasezawa. 1992. Tobacco BY-2 cell line as the Hela cell in the cell biology of higher plants. Intl. Rev. Cytol., 132:1-30). Protoplasts prepared from 3 day-old cultures were resuspended in 0.4 M mannitol and distributed into 35 mm petri dishes in 1 mL aliquots (˜5×10⁵ cells). Protoplasts were mixed with plasmid DNA and electroporated at 0.56 K Volts for 80μ seconds using a square wave electroporation system with Petripulser electrode (BTX, San Diego, Calif., USA). The cells were transfected with 10 μg for the intramolecular recombination test plasmid and 0 or 10 μg for the recombinase expression plasmid. Following the electroporation, protoplasts were diluted with 1 mL of 2× protoplast culture medium (Watanabe, Y., T. Meshi, and Y. Okada. 1987. Infection of tobacco protoplasts with in vitro transcribed tobacco mosaic virus RNA using an improved electroporation method. Virology, 192:264-272), aliquotted as two 1 mL cultures, and incubated at 27° C. for 17 h. Protoplasts were lysed by freeze thawing and addition of 250 μL 5× passive lysis buffer (Promega, Madison, Wis., USA). Twenty μL of cell extract was assayed for luciferase activity using Dual Luciferase Assay kit on a plate reader equipped with injectors. […]

The target of data set [2] is T2, Bxb1 recombinase (Mycobacterium smegmatis phage Bxb1).
T2 chain: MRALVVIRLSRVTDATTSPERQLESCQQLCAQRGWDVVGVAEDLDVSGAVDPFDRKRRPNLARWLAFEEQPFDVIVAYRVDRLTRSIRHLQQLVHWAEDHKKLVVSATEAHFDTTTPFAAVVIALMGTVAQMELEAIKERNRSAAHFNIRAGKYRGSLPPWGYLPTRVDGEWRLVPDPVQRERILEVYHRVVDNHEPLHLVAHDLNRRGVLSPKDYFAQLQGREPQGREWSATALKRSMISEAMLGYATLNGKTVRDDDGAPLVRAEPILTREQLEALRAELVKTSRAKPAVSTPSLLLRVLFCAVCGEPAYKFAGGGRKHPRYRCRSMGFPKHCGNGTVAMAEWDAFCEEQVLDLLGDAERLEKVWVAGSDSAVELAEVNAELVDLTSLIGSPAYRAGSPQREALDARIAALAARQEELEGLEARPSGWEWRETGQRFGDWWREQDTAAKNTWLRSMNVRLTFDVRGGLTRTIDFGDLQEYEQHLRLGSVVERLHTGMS
The data set is described as follows: cell_activity; partner of N5, NIH3T3; chromosomal integration also seen (Tables 1-2). As to the method: Cells were maintained at 37° C. and 5% CO₂ in DMEM supplemented with 10% fetal bovine serum and 1% penicillin/streptomycin (obtained from Invitrogen, Carlsbad, Calif.) or in other media as indicated. On the day of transfection, cells were plated at different densities depending on the cell type used. The cells were transfected with intramolecular recombination assay plasmid alone or along with varying amounts of recombinase expression plasmid DNA using Lipofectamine 2000™ according to the manufacturers instructions (Invitrogen, Carlsbad, Calif.). Constitutively expressed Renilla luciferase reporter plasmid (pRL-CMV from Promega, Madison, Wis.) was co-transfected (2 ng/well) and used as an internal control to normalize the data. Twenty-four or forty-eight hours after transfection (depending on the cell line), media was discarded and cells were lysed with passive lysis buffer (Promega, Madison, Wis.). Extracts were then assayed using Dual Luciferase Assay kit (Promega, Madison, Wis.) on a plate reader equipped with injectors (Dynex Technologies, Chantilly, Va.). The data shown are the ratios of luciferase (Luc) and Renilla luciferase (RLuc) activities, unless noted otherwise. Similar results were observed when Luc activities (relative light units) were compared (data not shown). […]

Data set [3] addresses T1, A118 recombinase. Put plainly: cell_activity; attP x attB recombination with N8, tobacco BY2 protoplasts; also active in mammalian cells. As to the method: as §1

B1: A118 attB (dsDNA)
DNA 1: TTGAGCTAATTAAAACCAGCTGTAACTTTTTCGGATCAAGCTATGAAGGACGCAAAGAGGGAACTAAACACTTAATTGGTGTTACCCATAAGCCAC
DNA 2: GTGGCTTATGGGTAACACCAATTAAGTGTTTAGTTCCCTCTTTGCGTCCTTCATAGCTTGATCCGAAAAAGTTACAGCTGGTTTTAATTAGCTCAA
B1: the activity in data set [1] turned out to be 364 fold induction.

B2: Bxb1 attB (dsDNA)
DNA 1: GGCCGGCTTGTCGACGACGGCGGTCTCCGTCGTCAGGATCATCCGG
DNA 2: CCGGATGATCCTGACGACGGAGACCGCCGTCGTCGACAAGCCGGCC
For B2, the activity in data set [2] is 66 fold induction.

B3: A118 attP (dsDNA)
DNA 1: ACGCTAGTAGCTTGTTTATTTAGATTGTTTAGTTCCTCGTTTTCTCTCGTTGGAAGAAGAAGAAACGAGAAACTAAAATTATAAATAAAAAGTAACCTA
DNA 2: TAGGTTACTTTTTATTTATAATTTTAGTTTCTCGTTTCTTCTTCTTCCAACGAGAGAAAACGAGGAACTAAACAATCTAAATAAACAAGCTACTAGCGT
As for B3, the activity in data set [3] came out at 364 fold induction.
